# Test results published in US7893023B2, “Prodrugs activated by plasmin and their use in cancer chemotherapy” (priority 2000, dated 2011).
# Read-outs that look alike come from different tables or passages of the source. Square brackets hold non-standard residues; d marks the D form. Peptide text beside a SMILES is read from it. * marks the point of attachment. ξ: configuration not given here. Doxorubicin(3'-N) = COc1cccc2c1C(=O)c1c(O)c3c(c(O)c1C2=O)C[C@@](O)(C(=O)CO)C[C@@H]3O[C@H]1C[C@H](N*)[C@H](O)[C@H](C)O1; X1 = COc1cccc2c1C(=O)c1c(O)c3c(c(O)c1C2=O)C[C@@](O)(C(C)=O)CC3OC1C[C@H](N*)[C@H](C)[C@H](C)O1; AMC = Cc1cc(=O)oc2cc(N*)ccc12; ξL = CC(C)CC(N)C(=O)O; ξK = NCCCCC(N)C(=O)O; ξA = CC(N)C(=O)O
# Assays:
# [1] = biological target: T1, human plasmin (Homo sapiens, UniProt P00747); assay: Hydrolysis by human plasmin; assay type: biochemical; conditions: for rate of in vitro hydrolysis by human plasmin: 0.17 mM, 0.1 units human plasmin, 25° C., 50 mM pH 8.0 TES buffer
# T1 construct: purchased Sigma
# Method: In an eppendorf tube, 50 μl of the substrate at a concentration of 50 μM in DMF were mixed with 900 μl of TES buffer and 50 μl of an enzyme-containing solution. The mixture was incubated for 1 hour at 25° C. Fluorescence was determined (λexc=350 nm, λem=496 nm; fluorometer standardized with a 10 nM solution of 7-amido-4-methylcoumarin in PBS and the whole mixture excluding the enzyme). A dosage curve was done in parallel with known plasmin concentrations (at least five ½ dilutions). Plasmin activity was determined and expressed in IU/ml; μmole substrate transformed/min×ml.
# Compounds I, DNR and II, DNR (0.17 mM), as well as D-Ala-Leu-Lys-7-amido-4-methylcoumarin (0.17 mM) were incubated at 25° C. in the presence of 0.1 units of human plasmin in a 50 mM, pH 8.0 TES buffer. For Compounds I, DNR and II, DNR, HPLC samples were prepared and analyzed by HPLC (See General Methods, Section J). In case of D-Ala-Leu-Lys-7-amido-4-methylcoumarin, after 1 hour of incubation, the fluorescence of the resulting solution was determined at λexc=350 nm, λem=496 nm (See General Methods, Section N.).
# After 15, 45 and 60 min of incubation, triplicate aliquots were removed and the drugs and metabolites extracted prior to HPLC analysis (See General Methods, Section J.).
# [2] = system: medium conditioned by cultured B16-B16 cells; assay: Hydrolysis in medium conditioned by B16-B16 cells; assay type: in vitro ADME, murine; conditions: 17.24 μM, medium 20 times concentrated, 2 hours, 37° C.
# Method: Compounds I, DNR and II, DNR (17.24 μM) were incubated in a medium freshly conditioned by the cultured B16-B16 cells (20 times concentrated) for 2 hours at 37° C. After that time, triplicate aliquots were removed and the drugs and metabolites extracted prior to HPLC analysis (See General Methods, Section J.).
# [3] = system: MCF-7/6 human mammary carcinoma cells; assay: In vitro accumulation by cultured MCF-7/6 tumor cells; assay type: cell-based; conditions: 0.02 mM, 37° C., after 24 hours
# Method: Compound I, DNR was incubated in vitro at 37° C. in the presence of MCF-7/6 human mammary carcinoma cells and the intracellular accumulation of the compound or its potential metabolites were analyzed by HPLC and fluorimetry, after extraction of the drugs from the cells.
# Compound I, DNR was dissolved in distilled water at 17.24 μmole/ml and then diluted to obtain 0.02 mM in DMEM-F12 culture medium supplemented with 10% fetal calf serum (glutamax-I). Four ml of medium was poured in 25 cm^2 flasks (ref 3014. FALCON), and the cells were incubated for 30 minutes, 1, 3, 6 and 24 hours at 37° C. Then the cells were washed three times with PBS, and the cells were scraped from the flasks, and sonicated for 30 seconds at 100 Watts in a ice bath. Aliquots of 500 μl from each sample were then extracted with 1.8 ml of a chloroform:methanol mixture (4:1 by volume) to which 0.1 ml of 0.2 M borate buffer at pH 9.2, containing DOX at […] as internal standard, were added. After stirring, the organic layer was dried and resuspended in 400 μl of distilled water, sonicated 5 minutes at 100 Watts in a ice-bath and filtered through a 0.22 μm filter (Waters-Millipore, MILLEX-GV) and then analyzed by HPLC.
# On a aliquot of 100 μl, the protein content of the cell homogenate was determined.
# [4] = system: B16-B16 melanoma cells; assay: Uptake by B16-B16 cells; assay type: cell-based, murine
# Method: This experiment was conducted to evaluate whether the prodrugs were able to enter cultured cells in their non-hydrolyzed forms. In addition, it was desired to estimate the capacity of the prodrugs to induce detectable levels of products of their enzymatic hydrolysis (DNR and its amino acid derivatives) inside B16-B16 cells. N-Leu-Leu-DNR was chosen as a reference drug since it is the product that is directly liberated by plasmin from Compound II, DNR.
# At determined time points (1, 3, 5 and 24 hours), the cells were washed, harvested and lysed by ultrasonication. The concentration of the drugs and metabolites in the cell lysates were determined after extraction and HPLC analysis (See General Methods, Section J.). The amounts of anthracycline derivatives found per mg of protein were then compared.
# [5] = Acute toxicity in OF-1 mice, i.p.; assay type: in vivo; conditions: male, mouse, in vivo, ip; OF-1 mice, five i.p. injections days 0-4, calculated on day 28
# Method: (§1) The percentage of surviving mice and the mean body weight of each dose group was plotted as a function of time. Cumulative mortality on day 14 and day 28 was also plotted as a function of the dose level for the purpose of IC50 determination. IC50 values were determined from sigmoidal regressions performed with the GraphPad Prism 3.00 software.
# (§2) Male OF-1 mice (5 weeks old upon delivery), were kept for one week under laboratory conditions before the experiment. […] The animals were divided in six groups (5 mice per group) for toxicity studies and marked individually.
# (§3) Mortality and clinical signs were recorded up to 4 hours post-treatment on dosing days, and daily thereafter. Individual body weights were recorded daily until day 14 and at least twice a week thereafter. The percentage of surviving mice and the mean body weight of each dose group were plotted as a function of time. Cumulative mortality on day 14 and day 28 was also plotted as a function of the dose level for the purpose of LD50 determination. LD50 values were determined by regression analysis.
# [6] = system: OF-1 mice; assay: Acute toxicity in OF-1 mice, i.p.; assay type: in vivo
# Method: as §1, §2, §3
# [7] = system: LS174T colon tumor xenografts; assay: Chemotherapeutic activity in the LS174T human colon tumor xenograft model; assay type: in vivo, mice
# Text: Animals were kept under pathogen-free conditions with food and water supplied ad libitum, and kept for about one week before implantation of the tumors. Fragments (˜2 mm) of tumors grown in nude mice were implanted subcutaneously in both flanks of the mice. Tumors were generally allowed to grow to attain a diameter of 5-6 mm each (approximately two weeks).
# The mice weighed 20.0-25.0 g at the beginning of the study. They were selected and assigned to groups in order to have equally distributed tumor volumes in the different groups. In each group, mice were labeled individually. Treatments were assigned randomly to those groups.
# All dosing solutions were prepared the day of injection by dissolution in water ( 1/10 of the expected final volume) and further dilution with 0.9% (w/v) NaCl. The concentration of these solutions was checked (A475 nm determination) after sterilization by filtration (0.22 μm) and adjusted to the final required value using sterile 0.9% (w/v) NaCl).
# Treatments were administered by the i.p. route. The mice received a constant volume (10 μl/g) of either saline (control group) or drug. Mortality and clinical signs were recorded up to 4 hours post-treatment on dosing days, and daily thereafter. Their behavior was equally noted. Individual body weights were generally recorded daily until day 14 and at least twice a week thereafter.
# Tumor growth was monitored by two-dimensional measurements using calipers and a precision of 0.5 mm. Tumor volumes were calculated according to the following formula: Vt=[length×(width)^2]/2
# Median relative tumor volumes (RTV) were calculated as tumor volumes determined at individual days divided by tumor volumes on day 0. For treated groups, growth inhibition was estimated as the percentage ratio of median RTV of treated (T) mice versus controls (C) on each day of tumor treatment. T/C(%)=[Median RTV(treated group)/Median RTV(control group)]×100
# The minimal T/C value (%) for each treatment was used as a parameter for maximum efficacy. Duration of growth inhibition was assessed by considering growth delays (T-C) for one (200%) and two (400%) doublings of the median RTV).
# To determine the statistical significance of any difference in median RTV between two groups, the Mann-Whitney test was used. The test was conducted at a p level of 0.05 (two tailed) using the GraphPad Prism 3.00 software.
# Female Swiss nude mice were 5 weeks old upon delivery (See General Methods, Section O). They were kept under pathogen-free conditions with food and water supplied ad libitum, and kept for about one week before implantation of the tumors. Fragments (˜2 mm) of LS174T tumors grown in nude mice were implanted subcutaneously in both flanks of the mice used in the study. Tumors were left to grow for 17 days. At that time, the mice weighed about 20.5-26.5 g.
# Mice were then selected and assigned to groups in order to have equally distributed tumor volumes in different groups (5-6 mice, 9-10 tumors/group). The dose levels of Compound II, DOX used in the study, were selected on the basis of a lethality study previously conducted on OF-1 normal mice. The dose of DOX was based on previous chemotherapy experiments performed in nude mice with the same dosing schedule.
# Treatments were administered by the i.p. route on days 0, 1, 2, 3 and 4, the mice receiving a constant volume (10 μl/g) of either saline or the different dosing solutions. DOX was used at 3.8 μmol/kg, Compound II, DOX was used at 25.9 μmol/kg and 34.5 μmol/kg. Clinical signs (recorded 0.5, 1, 2 and 4 hours after dosing and daily between dosing days) and body weights (recorded on each day of tumor measurement) were used to assess treatment toxicity, tumor growth was monitored on days 7, 12, 15, 19, 22, 26, 29, 33 and 36 by two-dimensional measurements using calipers and a precision of 0.5 mm.
# [8] = system: B16-B16 murine melanoma
# Method: Male C57-B16 black mice were 5 weeks old upon delivery. The body weight of the animals was approximately 20 g at the beginning of the test (See General Methods, Section O).
# The animals were divided in eight groups (5 mice per group). Confluent murine melanoma B16-B16 cells (See General Methods, Section E.) were washed twice with PBS and EDTA (See General Methods, Section F.) twice and detached with trypsin (2 min incubation at 37° C.), that was thereafter neutralized by DMEM-F12 (containing 10% of calf serum). The cells were centrifuged for 5 min at 300 g. The pellet was resuspended twice in the DMEM-F12 without serum and centrifuged 5 min at 300 g.
# The number of cells per ml of DMEM-F12 was then estimated (Brucker chamber) and the dilution of 2.5×10^5 cells/ml prepared. Each animal received 200 μl of this suspension (5.0×10^4 cells) in its tail vein. The day of injection was considered day 0 of the study. […] Animals were weighed on days 0, 1, 3, 6, 8 and 14. Their behavior and eventual clinical signs were also noted. All animals were sacrificed on day 14 and autopsied.
# The lung lobes were fixed in a Bouin's solution (picric acid: formaldehyde, 40%: acetic acid, 15:5:1, v/v). Every lobe immersed in the fixing solution in a Petri flask was uniformly lighted against an opaque black background. Pictures of the front and back side of every lobe were taken with the help of a light microscope, scanned and digitized. The relative surface occupied by B116-B16 colonies was then estimated with the Scion Image Program.
# The individual mean values were analyzed with the Scheffe's F-test to evaluate the statistical significance of differences observed between the groups.
# [9] = DOX 3.8 μmol/kg, Compound II, DOX lower dosage 25.9 μmol/kg, i.p. days 0-4
# T1 sequence (P00747 581-810 limits assumed): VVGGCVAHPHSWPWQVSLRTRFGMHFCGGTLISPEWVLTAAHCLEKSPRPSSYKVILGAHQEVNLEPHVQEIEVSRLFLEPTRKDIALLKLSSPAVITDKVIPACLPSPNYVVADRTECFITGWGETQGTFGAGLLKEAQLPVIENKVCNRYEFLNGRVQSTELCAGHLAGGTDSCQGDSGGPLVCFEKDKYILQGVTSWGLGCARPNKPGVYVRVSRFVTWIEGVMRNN
# T1 sequence (P00747 97-580 partner limits assumed): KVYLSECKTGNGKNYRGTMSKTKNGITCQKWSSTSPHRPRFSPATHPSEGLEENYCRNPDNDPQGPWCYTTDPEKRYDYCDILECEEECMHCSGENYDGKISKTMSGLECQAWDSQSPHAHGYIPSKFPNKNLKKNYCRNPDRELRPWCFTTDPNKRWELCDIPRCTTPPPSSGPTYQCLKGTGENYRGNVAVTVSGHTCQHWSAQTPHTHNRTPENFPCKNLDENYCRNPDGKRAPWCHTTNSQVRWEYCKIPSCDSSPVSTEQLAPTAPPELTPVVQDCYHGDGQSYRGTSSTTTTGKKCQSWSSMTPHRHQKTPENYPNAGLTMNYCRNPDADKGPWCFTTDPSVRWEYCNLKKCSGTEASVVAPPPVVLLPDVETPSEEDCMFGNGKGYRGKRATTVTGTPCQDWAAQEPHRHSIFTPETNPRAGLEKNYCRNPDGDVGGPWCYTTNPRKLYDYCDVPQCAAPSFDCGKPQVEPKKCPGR
molecule,measurement,setting,value
"COc1cccc2c1C(=O)c1c(O)c3c(c(O)c1C2=O)C[C@@](O)(C(C)=O)CC3OC1C[C@H](NC(=O)C(CC(C)C)NC(=O)C(CCCCN)NC(=O)C(CC(C)C)NC(=O)C(C)N)[C@H](C)[C@H](C)O1 (stereo partly drawn) [Compound I, DNR, D-Ala-Leu-Lys-Leu-DNR]",rate of in vitro hydrolysis by human plasmin,[1],approximately 2.75 nmol/min/unit
same,hydrolysis in medium conditioned by B16-B16 cells,[2],Negative results
same,accumulation by cultured MCF-7/6 cells,[3],approximately 0.1 μg/mg of cell proteins
same,intracellular level of metabolite DNR,[4],0.015±0.002 mmol/mg cell protein
"COc1cccc2c1C(=O)c1c(O)c3c(c(O)c1C2=O)C[C@@](O)(C(C)=O)CC3OC1C[C@H](NC(=O)C(CC(C)C)NC(=O)C(CC(C)C)NC(=O)C(CCCCN)NC(=O)C(CC(C)C)NC(=O)C(C)N)[C@H](C)[C@H](C)O1 (stereo partly drawn) [Compound II, DNR, D-Ala-Leu-Lys-Leu-Leu-DNR] (H-[ξA][ξL][ξK][ξL][ξL]-X1)",rate of in vitro hydrolysis by human plasmin,[1],27.90 nmol/min/unit
same,"hydrolysis by plasmin, times more rapid than Compound I, DNR",[1]; same conditions,at least 10 times
same,hydrolysis in medium conditioned by B16-B16 cells,[2],Negative results
"COc1cccc2c1C(=O)c1c(O)c3c(c(O)c1C2=O)C[C@@](O)(C(=O)CO)C[C@@H]3O[C@H]1C[C@H](NC(=O)[C@H](CC(C)C)NC(=O)[C@H](CC(C)C)NC(=O)[C@H](CCCCN)NC(=O)[C@H](CC(C)C)NC(=O)[C@@H](C)N)[C@H](O)[C@H](C)O1 [Compound II, DOX, D-Ala-Leu-Lys-Leu-Leu-DOX] (H-[dA]LKLL-{Doxorubicin(3'-N)})",LD50 at 28 day,[5],34.5 µmol/kg
same,survival,"[6]; OF-1 mice, 17.24-60.34 μmol/kg i.p. days 0-4",All animals survived to day 7
same,clinical signs of toxicity,"[6]; OF-1 mice, i.p.","piloerection, tremor, motor disturbances, stupor and finally, paralysis of the hind legs"
same,loss of mean body weight compared to initial body weight (critical threshold attained),"[6]; doses 34.48 (after second week), 43.1 and 60.34 μmol/kg (after first week)",≥ 20%
same,LD50 fold higher than that of DOX,[6]; same conditions,8.4 fold
same,mice that died before the end of the study,"[7]; 34.5 μmol/kg i.p. days 0-4, deaths on days 18, 34 and 35",three
same,maximum loss of mean body weight,"[7]; 34.5 μmol/kg, day 26",14%
same,treatment-related mortality,[7]; [9],No treatment-related mortality
same,weight loss,[7]; [9],no significant weight loss
same,body weight gained from day 6 to day 14,[8]; 34.5 μmol/kg,4.9%
same,"mean body weight, % of initial","[8]; 34.5 μmol/kg, day 14",104.5%
same,clinical signs of toxicity,[8]; 34.5 and 69.0 μmol/kg,No clinical signs of toxicity were observed
"Cc1cc(=O)oc2cc(NC(=O)[C@H](CCCCN)NC(=O)[C@H](CC(C)C)NC(=O)[C@@H](C)N)ccc12 [D-Ala-Leu-Lys-7-amido-4-methylcoumarin, reference compound] (H-[dA]-Leu-Lys-{AMC}; N-terminus assumed)",rate of in vitro hydrolysis by human plasmin,[1],20.40 nmol/min/unit
same,hydrolysis in medium conditioned by B16-B16 cells,[2],Negative results
N-Leu-Leu-DNR,intracellular level of metabolite DNR,"[4]; B16-B16 cells, 3 hours",0.67±0.12 nmol/mg cell protein
same,intracellular level of metabolite L-Leu-DNR,"[4]; B16-B16 cells, 3 hours",81.22±6.66 nmol/mg cell protein
same,intracellular level of the unchanged compound,"[4]; B16-B16 cells, 3 hours of incubation",7.74±0.75 nmol/mg cell protein
same,intracellular level of metabolite L-Leu-DNR,"[4]; B16-B16 cells, 24 hours",98.57±16.76 nmol/mg cell protein
same,intracellular level of the unchanged compound,"[4]; B16-B16 cells, 24 hours",1.04±0.10 mmol/mg cell protein
same,intracellular level of metabolite DNR,"[4]; B16-B16 cells, 24 hours (end of incubation)",1.60±0.77 nmol/mg cell protein
